Experimental data reported in patent US20240425607A1 (published 2024).
Numbering of substitutions follows the chain as printed.

B1: ADI-66692 (antibody, V domains shown)
VH: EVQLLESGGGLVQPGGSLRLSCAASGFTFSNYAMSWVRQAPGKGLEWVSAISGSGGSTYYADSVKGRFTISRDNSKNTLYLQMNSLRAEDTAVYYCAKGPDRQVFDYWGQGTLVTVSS
VL: DIQMTQSPSSVSASVGDRVTITCRASQGIDSWLAWYQQKPGKAPKLLIYAASSLQSGVPSRFSGSGSGTDFTLTISSLQPEDFATYYCQHAYSFPYTFGGGTKVEIK
B2: ADI-66716 (antibody, V domains shown)
VH: QLQLQESGPGLVKPSETLSLTCTVSGGSISSSDYYWGWIRQPPGKGLEWIGSIYYSGSTYYNPSLKSRVTISVDTSKNQFSLKLSSVTAADTAVYYCARGPHRQVFDYWGQGTLVTVSS
VL: B1 VL with D30S, H90Q, A91G, Y92S

Experiments:
[1] = molecular target: T1, human IL-18BP (recombinant, construct not stated) (UniProt O95998 31-194); assay: blocking ELISA
T1 chain: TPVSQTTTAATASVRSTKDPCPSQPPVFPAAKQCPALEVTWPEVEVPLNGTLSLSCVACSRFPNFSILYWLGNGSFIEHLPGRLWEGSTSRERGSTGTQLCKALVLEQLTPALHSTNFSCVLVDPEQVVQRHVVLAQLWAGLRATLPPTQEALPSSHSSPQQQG

Cyno IL18-IL18BP = Cyno IL18-IL18BP (cynomolgus monkey); assay: blocking ELISA

Row | Binder | IC50 [1] [µg/mL] | IC50 (Cyno IL18-IL18BP) [µg/mL]
1 | B1 | 0.278 | –
2 | B2 | 0.208 | 8.18
